Measurements published in patent US20200223938A1 (published 2020).

Biological target: monomeric FcRn (Sinobiological inc., CT009-H08H) (human;, UniProt P55899 24-297; P61769 21-119)
Assay: Biacore SPR; pH 6.0

monomeric FcRn (Sinobiological inc., CT009-H08H), sequence (P55899 24-297, chain 1 of 2): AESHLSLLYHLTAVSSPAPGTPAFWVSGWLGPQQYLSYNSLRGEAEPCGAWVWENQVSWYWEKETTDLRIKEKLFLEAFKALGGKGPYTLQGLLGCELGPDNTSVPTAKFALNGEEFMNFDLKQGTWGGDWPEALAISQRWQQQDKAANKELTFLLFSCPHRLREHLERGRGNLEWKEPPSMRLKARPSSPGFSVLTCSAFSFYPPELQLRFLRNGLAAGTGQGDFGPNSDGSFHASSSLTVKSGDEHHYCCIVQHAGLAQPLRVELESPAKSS
monomeric FcRn (Sinobiological inc., CT009-H08H), sequence (P61769 21-119, chain 2 of 2): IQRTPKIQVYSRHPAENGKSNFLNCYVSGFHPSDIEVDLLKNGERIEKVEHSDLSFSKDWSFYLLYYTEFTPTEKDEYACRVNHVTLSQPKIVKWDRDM

| Binder | Kd [nM] |
| --- | --- |
| EFc88 (protein) DKTHTCPPCSAPELLGGPSVFLFPPKPKDTLMISRTPEVTCVVVDVSHEDPEVKFNWYVDGVEVHNAKTKPREELYNSTYRVVSVLTVLHQDWLNGKEYMCKVSNKALPAPIEKTISKAKGQPREPQVYTLPPSREELTKNQVSLTCLVKGFYPSDIAVEWESNGQPENNYKTTPPVLDSDGSFILYSKLTVDKSRWQQGNVFSCSVLHEALHNHYTQKSLSLSPGK | 6.99 |
| trastuzumab Fc variant EFc82 (antibody) Fc: DKTHTCPPCQAPELLGGPSVFLYPPEPKDTLMISRTPEVTCVVVDVSHEDPEVKFNWYVDGVEVHNAKTKPREEQYNSTYRVVSVLTVLHQDWLNGKEYKCKVSNKALPAPIEKTISKAKGQPREPQVYTLPPSRDELTKSQVSLTCLVKGFYPSDIAVEWESIGQPENNYKTTPPVLDSDGSFFLYSKLTVDKSRWQQGNVFSCSVLHEALHNHYTQKSLSLSPGK | 6.68 |
